According to patent US20240360227A1:
Substitutions are numbered along the chain they refer to.

B1: VRDN-02029 (antibody, V domains shown)
VH: QVQLQESGPGLVKPSETLSLTCTVSGYSITGGYLWNWIRQPPGKGLEWIGYISYDGTNNYKPSLKDRVTISRDTSKNQFSLKLSSVTAADTAVYYCARYGRVFFDYWGQGTLVTVSS
VL: DIVMTQSPLSLPVTPGEPASISCHSSQSIVHSNGNTYLQWYLQKPGQSPQLLIYKVSNRLYGVPDRFSGSGSGTDFTLKISRVEAEDVGVYYCFQGSHVPWTFGQGTKVEIK
B2: VRDN-02053 (antibody, V domains shown)
VH: B1 VH
VL: B1 VL with H24R, G96H
B3: VRDN-02035 (antibody, V domains shown)
VH: B1 VH
VL: B1 VL with H24R, V30H
B4: VRDN-02034 (antibody, V domains shown)
VH: B1 VH
VL: B1 VL with H24R, I29H
B5: VRDN-02003 (antibody, V domains shown)
VH: B1 VH with S28H
VL: B1 VL with H24R
B6: VRDN-02033 (antibody, V domains shown)
VH: B1 VH
VL: B1 VL with H24R, S28H
B7: VRDN-02004 (antibody, V domains shown)
VH: B1 VH with I29H
VL: B1 VL with H24R
B8: VRDN-02036 (antibody, V domains shown)
VH: B1 VH
VL: B1 VL with H24R, S32H
B9: VRDN-02038 (antibody, V domains shown)
VH: B1 VH
VL: B1 VL with H24R, G34H
B10: VRDN-02040 (antibody, V domains shown)
VH: B1 VH
VL: B1 VL with H24R, T36H
B11: VRDN-02054 (antibody, V domains shown)
VH: B1 VH
VL: B1 VL with H24R, S97H
B12: VRDN-02046 (antibody, V domains shown)
VH: B1 VH
VL: B1 VL with H24R, S57H
B13: VRDN-02048 (antibody, V domains shown)
VH: B1 VH
VL: B1 VL with H24R, R59H
B14: VRDN-02039 (antibody, V domains shown)
VH: B1 VH
VL: B1 VL with H24R, N35H
B15: VRDN-02031 (antibody, V domains shown)
VH: B1 VH
VL: B1 VL with H24R, S26H
B16: VRDN-02037 (antibody, V domains shown)
VH: B1 VH
VL: B1 VL with H24R, N33H
B17: VRDN-02050 (antibody, V domains shown)
VH: B1 VH
VL: B1 VL with H24R, Y61H
B18: VRDN-02042 (antibody, V domains shown)
VH: B1 VH
VL: B1 VL with H24R, L38H
B19: VRDN-02041 (antibody, V domains shown)
VH: B1 VH
VL: B1 VL with H24R, Y37H
B20: VRDN-02047 (antibody, V domains shown)
VH: B1 VH
VL: B1 VL with H24R, N58H
B21: VRDN-02045 (antibody, V domains shown)
VH: B1 VH
VL: B1 VL with H24R, V56H
B22: VRDN-02005 (antibody, V domains shown)
VH: B1 VH with T30H
VL: B1 VL with H24R
B23: VRDN-02055 (antibody, V domains shown)
VH: B1 VH
VL: B1 VL with H24R, V99H
B24: VRDN-02032 (antibody, V domains shown)
VH: B1 VH
VL: B1 VL with H24R, Q27H
B25: VRDN-02043 (antibody, V domains shown)
VH: B1 VH
VL: B1 VL with H24R, Q39H
B26: VRDN-02049 (antibody, V domains shown)
VH: B1 VH
VL: B1 VL with H24R, L60H
B27: VRDN-02052 (antibody, V domains shown)
VH: B1 VH
VL: B1 VL with H24R, Q95H
B28: VRDN-02051 (antibody, V domains shown)
VH: B1 VH
VL: B1 VL with H24R, F94H
B29: VRDN-02030 (antibody, V domains shown)
VH: B1 VH
VL: B1 VL with H24R, S25H
B30: VRDN-02044 (antibody, V domains shown)
VH: B1 VH
VL: B1 VL with H24R, K55H

The binders below were run against Recombinant human his-tagged IGF R extracellular domain protein (human) (UniProt P08069) (assay: SPR, Ab captured via anti-huIgG Fc, pH 7.4).

Kd | koff | kon | Binder
0.599 nM | 5.53e-05 s⁻¹ | 92400 M⁻¹ s⁻¹ | B1
7.18 nM | 0.00243 s⁻¹ | 338000 M⁻¹ s⁻¹ | B2
0.646 nM | 6.32e-05 s⁻¹ | 97800 M⁻¹ s⁻¹ | B3
1.03 nM | 0.000105 s⁻¹ | 101000 M⁻¹ s⁻¹ | B4
0.423 nM | 4.72e-05 s⁻¹ | 112000 M⁻¹ s⁻¹ | B5
0.822 nM | 8.1e-05 s⁻¹ | 98500 M⁻¹ s⁻¹ | B6
7.78 nM | 0.000684 s⁻¹ | 87800 M⁻¹ s⁻¹ | B7
0.444 nM | 4.42e-05 s⁻¹ | 99500 M⁻¹ s⁻¹ | B8
0.649 nM | 5.36e-05 s⁻¹ | 82600 M⁻¹ s⁻¹ | B9
1.22 nM | 0.000104 s⁻¹ | 85400 M⁻¹ s⁻¹ | B10
0.838 nM | 6.19e-05 s⁻¹ | 73900 M⁻¹ s⁻¹ | B11
0.569 nM | 5.23e-05 s⁻¹ | 92000 M⁻¹ s⁻¹ | B12
0.55 nM | 4.17e-05 s⁻¹ | 75700 M⁻¹ s⁻¹ | B13
0.586 nM | 5.26e-05 s⁻¹ | 89800 M⁻¹ s⁻¹ | B14
0.468 nM | 4.56e-05 s⁻¹ | 97300 M⁻¹ s⁻¹ | B15
0.844 nM | 6.43e-05 s⁻¹ | 76200 M⁻¹ s⁻¹ | B16
0.603 nM | 6.7e-05 s⁻¹ | 111000 M⁻¹ s⁻¹ | B17
0.704 nM | 7.31e-05 s⁻¹ | 104000 M⁻¹ s⁻¹ | B18
0.795 nM | 7.59e-05 s⁻¹ | 95500 M⁻¹ s⁻¹ | B19
0.622 nM | 5.34e-05 s⁻¹ | 85900 M⁻¹ s⁻¹ | B20
1.1 nM | 6.49e-05 s⁻¹ | 59200 M⁻¹ s⁻¹ | B21
0.71 nM | 6.09e-05 s⁻¹ | 85800 M⁻¹ s⁻¹ | B22
0.509 nM | 4.92e-05 s⁻¹ | 96600 M⁻¹ s⁻¹ | B23
0.769 nM | 7.16e-05 s⁻¹ | 93100 M⁻¹ s⁻¹ | B24
0.746 nM | 6.22e-05 s⁻¹ | 83400 M⁻¹ s⁻¹ | B25
0.946 nM | 7.92e-05 s⁻¹ | 83700 M⁻¹ s⁻¹ | B26
0.564 nM | 5.7e-05 s⁻¹ | 101000 M⁻¹ s⁻¹ | B27
1.03 nM | 7.59e-05 s⁻¹ | 74000 M⁻¹ s⁻¹ | B28
0.646 nM | 5.48e-05 s⁻¹ | 84800 M⁻¹ s⁻¹ | B29
0.551 nM | 4.69e-05 s⁻¹ | 85200 M⁻¹ s⁻¹ | B30

What follows are binders tested against Recombinant human his-tagged IGF R extracellular domain protein (human) (UniProt P08069) (assay: SPR, Ab captured via anti-huIgG Fc, dissociation at pH 6).

Kd | koff | kon | Binder
1.1 nM | 9.38e-05 s⁻¹ | 85600 M⁻¹ s⁻¹ | B1
3.48 nM | 0.000193 s⁻¹ | 55600 M⁻¹ s⁻¹ | B2
1.22 nM | 0.000107 s⁻¹ | 87600 M⁻¹ s⁻¹ | B3
1.26 nM | 0.000107 s⁻¹ | 85000 M⁻¹ s⁻¹ | B4
1 nM | 9.44e-05 s⁻¹ | 94300 M⁻¹ s⁻¹ | B5
1.19 nM | 0.00011 s⁻¹ | 92700 M⁻¹ s⁻¹ | B6
6.19 nM | 0.000593 s⁻¹ | 95700 M⁻¹ s⁻¹ | B7
1.08 nM | 0.000102 s⁻¹ | 94200 M⁻¹ s⁻¹ | B8
1.31 nM | 0.000111 s⁻¹ | 84800 M⁻¹ s⁻¹ | B9
1.04 nM | 9.07e-05 s⁻¹ | 87000 M⁻¹ s⁻¹ | B10
1.14 nM | 8.07e-05 s⁻¹ | 70700 M⁻¹ s⁻¹ | B11
1.29 nM | 0.000103 s⁻¹ | 79900 M⁻¹ s⁻¹ | B12
1.03 nM | 8.1e-05 s⁻¹ | 78800 M⁻¹ s⁻¹ | B13
1.36 nM | 0.000109 s⁻¹ | 79800 M⁻¹ s⁻¹ | B14
1.22 nM | 0.000115 s⁻¹ | 94400 M⁻¹ s⁻¹ | B15
1.44 nM | 0.000101 s⁻¹ | 70000 M⁻¹ s⁻¹ | B16
1.2 nM | 9.87e-05 s⁻¹ | 82000 M⁻¹ s⁻¹ | B17
1.08 nM | 0.000101 s⁻¹ | 94100 M⁻¹ s⁻¹ | B18
1.16 nM | 0.000102 s⁻¹ | 87800 M⁻¹ s⁻¹ | B19
1.48 nM | 9.84e-05 s⁻¹ | 66600 M⁻¹ s⁻¹ | B20
1.66 nM | 8.63e-05 s⁻¹ | 51900 M⁻¹ s⁻¹ | B21
1.16 nM | 0.000119 s⁻¹ | 102000 M⁻¹ s⁻¹ | B22
1.1 nM | 0.000101 s⁻¹ | 91800 M⁻¹ s⁻¹ | B23
0.998 nM | 9.61e-05 s⁻¹ | 96300 M⁻¹ s⁻¹ | B24
1.13 nM | 9.08e-05 s⁻¹ | 80400 M⁻¹ s⁻¹ | B25
1.15 nM | 9.15e-05 s⁻¹ | 79500 M⁻¹ s⁻¹ | B26
1.33 nM | 0.000156 s⁻¹ | 117000 M⁻¹ s⁻¹ | B27
1.3 nM | 8.62e-05 s⁻¹ | 66600 M⁻¹ s⁻¹ | B28
1.09 nM | 9.65e-05 s⁻¹ | 88900 M⁻¹ s⁻¹ | B29
0.759 nM | 6.27e-05 s⁻¹ | 82600 M⁻¹ s⁻¹ | B30
